Patent US20250019439A1 (Adimab, published 2025)

Experiments:
Assay in all cases: BLI; tip anti-CD3 bsIgG, solution ADI-34134 IgG
ADI-22523 anti-CD3 bsIgG = biological target: T1, ADI-22523 anti-CD3 bsIgG (In the assayed molecule VL and VH are joined as one scFv (printed 'Vx-VH' orientation) by an undisclosed linker and fused to an Fc, paired with an anti-HER2 half-IgG. They are given here as two …)
T1 construct: anti-HER2 IgG with one Fab arm replaced by the anti-CD3 scFv (printed 'Vx-VH', read as VL-VH); S354C and Y349C mutations; not shown: scFv linker between VL and VH; anti-HER2 heavy and light chains; hinge and Fc with S354C/Y349C
T1 sequence (VH, as listed by the source limits assumed, chain 1 of 2): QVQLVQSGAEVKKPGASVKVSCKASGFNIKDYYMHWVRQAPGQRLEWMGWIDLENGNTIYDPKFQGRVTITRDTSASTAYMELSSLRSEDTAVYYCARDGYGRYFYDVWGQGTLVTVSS
T1 sequence (VL, as listed by the source limits assumed, chain 2 of 2): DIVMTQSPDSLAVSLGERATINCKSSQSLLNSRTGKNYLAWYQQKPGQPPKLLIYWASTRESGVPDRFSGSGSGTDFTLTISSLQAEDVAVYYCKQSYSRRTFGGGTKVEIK
Experimental: (§1) ForteBio affinity measurements were performed generally as previously described (Estep et al., MAbs. 2013 5(2):270-8). Briefly, ForteBio affinity measurements were performed by loading antibody IgG or Fabs on-line onto AHC sensors. Sensors were equilibrated off-line in assay buffer for 30 minutes and then monitored on-line for 60 seconds for baseline establishment. For avid binding measurement, sensors with loaded antibodies were exposed to IgG or Fab solutions for 3 minutes, afterwards they were transferred to assay buffer for 3 minutes for off-rate measurement. Kinetics data were fit using a 1:1 binding model in the data analysis software provided by ForteBio to obtain equilibrium dissociation constant (KD=koff/kₒₙ) values. In each column, tip-immobilized antibodies are listed first and solution antibodies second.
(§2) Additional analysis was conducted using bispecific antibody formats incorporating anti-CD3 antibody variable domains. Bispecific antibodies were prepared using standard IgG formats (bsIgG) with replacement of Fab arms with anti-CD3 scFvs in Vx-VH orientation and with S354C and Y349C mutations for disulfide stabilization. Antibodies used for Fab arm replacement were anti-HER2 IgG antibodies, with one Fab arm from each replaced by a scFv corresponding to a different anti-CD3 antibody. […] In each column, tip-immobilized antibodies are listed first and solution antibodies second. Anti-CD3 antibodies associated with incorporated scFvs are listed by antibody number.

ADI-26906 anti-CD3 bsIgG = biological target: T2, ADI-26906 anti-CD3 bsIgG
T2 construct: anti-HER2 IgG with one Fab arm replaced by the anti-CD3 scFv (printed 'Vx-VH', read as VL-VH); S354C and Y349C mutations; also called anti-CD3 bsIgG (ADI-26906 scFv); not shown: scFv linker; anti-HER2 Fab arm (heavy and light chain); hinge and Fc with S354C/Y349C
T2 sequence (VH, as listed by the source limits assumed, chain 1 of 2): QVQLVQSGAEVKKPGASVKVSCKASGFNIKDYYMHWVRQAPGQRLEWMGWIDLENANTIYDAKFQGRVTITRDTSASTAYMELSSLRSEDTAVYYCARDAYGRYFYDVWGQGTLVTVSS
T2 sequence (VL, as listed by the source limits assumed, chain 2 of 2): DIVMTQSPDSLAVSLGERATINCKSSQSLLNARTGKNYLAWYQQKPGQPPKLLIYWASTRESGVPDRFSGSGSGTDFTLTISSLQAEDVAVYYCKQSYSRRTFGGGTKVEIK
Experimental: as §1, §2

ADI-26913 anti-CD3 bsIgG = biological target: T3, ADI-26913 anti-CD3 bsIgG
T3 construct: anti-HER2 IgG with one Fab arm replaced by the anti-CD3 scFv (printed 'Vx-VH', read as VL-VH); S354C and Y349C mutations; also called anti-CD3 bsIgG (ADI-26913 scFv); not shown: scFv linker; anti-HER2 Fab arm (heavy and light chain); hinge and Fc with S354C/Y349C
T3 sequence (VH, as listed by the source limits assumed, chain 1 of 2): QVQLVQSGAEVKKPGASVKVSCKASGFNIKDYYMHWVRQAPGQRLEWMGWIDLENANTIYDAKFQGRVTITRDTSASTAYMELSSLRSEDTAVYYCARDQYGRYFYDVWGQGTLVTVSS
Experimental: as §1, §2

ADI-26916 anti-CD3 bsIgG = biological target: T4, ADI-26916 anti-CD3 bsIgG
T4 construct: anti-HER2 IgG with one Fab arm replaced by the anti-CD3 scFv (printed 'Vx-VH', read as VL-VH); S354C and Y349C mutations; also called anti-CD3 bsIgG (ADI-26916 scFv); not shown: scFv linker; anti-HER2 Fab arm (heavy and light chain); hinge and Fc with S354C/Y349C; copies: 1 + 1
T4 sequence (VH, as listed by the source limits assumed, chain 1 of 2): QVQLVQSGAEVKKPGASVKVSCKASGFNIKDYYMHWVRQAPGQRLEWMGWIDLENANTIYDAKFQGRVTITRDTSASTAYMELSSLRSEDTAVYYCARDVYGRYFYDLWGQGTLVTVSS
Experimental: as §1, §2

ADI-26920 anti-CD3 bsIgG = biological target: T5, ADI-26920 anti-CD3 bsIgG
T5 construct: anti-HER2 IgG with one Fab arm replaced by the anti-CD3 scFv (printed 'Vx-VH', read as VL-VH); S354C and Y349C mutations; also called anti-CD3 bsIgG (ADI-26920 scFv); not shown: scFv linker; anti-HER2 Fab arm (heavy and light chain); hinge and Fc with S354C/Y349C
T5 sequence (VH, as listed by the source limits assumed, chain 1 of 2): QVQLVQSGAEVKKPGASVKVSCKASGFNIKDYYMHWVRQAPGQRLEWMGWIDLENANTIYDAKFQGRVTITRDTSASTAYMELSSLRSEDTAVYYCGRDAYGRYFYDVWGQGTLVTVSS
T5 sequence (VL, as listed by the source limits assumed, chain 2 of 2): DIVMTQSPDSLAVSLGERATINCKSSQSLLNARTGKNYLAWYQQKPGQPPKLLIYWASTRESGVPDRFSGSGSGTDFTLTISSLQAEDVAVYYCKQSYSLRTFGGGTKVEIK
Experimental: as §1, §2

ADI-26921 anti-CD3 bsIgG = biological target: T6, ADI-26921 anti-CD3 bsIgG
T6 construct: anti-HER2 IgG with one Fab arm replaced by the anti-CD3 scFv (printed 'Vx-VH', read as VL-VH); S354C and Y349C mutations; also called anti-CD3 bsIgG (ADI-26921 scFv); not shown: scFv linker; anti-HER2 Fab arm (heavy and light chain); hinge and Fc with S354C/Y349C
T6 sequence (VH, as listed by the source limits assumed, chain 1 of 2): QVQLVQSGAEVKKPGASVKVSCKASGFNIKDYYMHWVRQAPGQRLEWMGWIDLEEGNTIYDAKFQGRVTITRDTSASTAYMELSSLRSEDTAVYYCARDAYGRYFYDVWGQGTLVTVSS
Experimental: as §1, §2

ADI-26927 anti-CD3 bsIgG = biological target: T7, ADI-26927 anti-CD3 bsIgG
T7 construct: anti-HER2 IgG with one Fab arm replaced by the anti-CD3 scFv (printed 'Vx-VH', read as VL-VH); S354C and Y349C mutations; also called anti-CD3 bsIgG (ADI-26927 scFv); not shown: scFv linker; anti-HER2 Fab arm (heavy and light chain); hinge and Fc with S354C/Y349C
T7 sequence (VH, as listed by the source limits assumed, chain 1 of 2): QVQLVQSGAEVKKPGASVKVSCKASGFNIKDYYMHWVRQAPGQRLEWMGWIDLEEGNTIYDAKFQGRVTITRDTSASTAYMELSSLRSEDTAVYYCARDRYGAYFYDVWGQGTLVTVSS
Experimental: as §1, §2

ADI-26928 anti-CD3 bsIgG = biological target: T8, ADI-26928 anti-CD3 bsIgG
T8 construct: anti-HER2 IgG with one Fab arm replaced by the anti-CD3 scFv (printed 'Vx-VH', read as VL-VH); S354C and Y349C mutations; also called anti-CD3 bsIgG (ADI-26928 scFv); not shown: scFv linker; anti-HER2 Fab arm (heavy and light chain); hinge and Fc with S354C/Y349C
T8 sequence (VH, as listed by the source limits assumed, chain 1 of 2): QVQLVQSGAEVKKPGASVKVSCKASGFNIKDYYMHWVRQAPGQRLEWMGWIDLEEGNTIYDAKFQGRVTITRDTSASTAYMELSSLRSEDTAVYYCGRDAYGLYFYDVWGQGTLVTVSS
Experimental: as §1, §2

CTL-19613 anti-CD3 bsIgG = biological target: T9, CTL-19613 anti-CD3 bsIgG (In the assay the two domains were one scFv (VL-VH orientation, linker not given). It replaced one Fab arm of an anti-HER2 IgG; S354C and Y349C mutations are stated for disulfide stabilization.)
T9 construct: anti-HER2 IgG with one Fab arm replaced by the anti-CD3 scFv (printed 'Vx-VH', read as VL-VH); S354C and Y349C mutations; also called anti-CD3 bsIgG (CTL-19613 scFv); not shown: scFv linker between VL and VH; anti-HER2 heavy and light chains of the other arm; hinge and Fc (with S354C / Y349C)
Experimental: as §1, §2

B1: ADI-34134 IgG (antibody, V domains shown)
VH: QVQLVQSGAEVKKPGSSVKVSCKASGGTFSSYAISWVRQAPGQGLEWMGGIIPIFGTANYAQKFQGRVTITADESTSTAYMELSSLRSEDTAVYYCARGAPNYYGSGGYDDGWFDPWGQGTLVTVSS
VL: EIVLTQSPGTLSLSPGERATLSCRASQSVSSDYLAWYQQKPGQAPRLLIYGASSRATGIPDRFSGSGSGTDFTLTISRLEPEDFAVYYCQQFGRVPTFGGGTKVEIK
Q: With B1 as the binder, how does the Kd (ADI-22523 anti-CD3 bsIgG) read?
A: Its Kd is 470 pM.

Q: What about the Kd (ADI-26906 anti-CD3 bsIgG) of the same binder?
A: The Kd was 750 pM.

Q: And the Kd (ADI-26913 anti-CD3 bsIgG)?
A: The Kd was 980 pM.

Q: And the Kd (ADI-26916 anti-CD3 bsIgG)?
A: Its Kd is 1940 pM.

Q: And the Kd (ADI-26920 anti-CD3 bsIgG)?
A: Its Kd is 470 pM.

Q: What about the Kd (ADI-26921 anti-CD3 bsIgG) of the same binder?
A: The Kd was 940 pM.

Q: What about the Kd (ADI-26927 anti-CD3 bsIgG) of the same binder?
A: Its Kd is 1020 pM.

Q: What about the Kd (ADI-26928 anti-CD3 bsIgG) of the same binder?
A: The Kd was 1390 pM.

Q: Does B1 bind (CTL-19613 anti-CD3 bsIgG)?
A: Result: no binding
